Experimental data as given in US20240343803A1 (SHANDONG SIMCERE BIOPHARMACEUTICAL, published 2024).
One block for each binder: values may come before it.

What was measured:
[1] = molecular target: T1, cynomolgus monkey PVRIG on FlpinCHO-cyno PVRIG cells (cynomolgus monkey, UniProt A0A2K5WVV8 41-322); assay: FACS, FlpinCHO-cyno PVRIG cells
T1 construct: whole, on cells; also called FlpinCHO-cynomolgus monkey PVRIG
T1 sequence: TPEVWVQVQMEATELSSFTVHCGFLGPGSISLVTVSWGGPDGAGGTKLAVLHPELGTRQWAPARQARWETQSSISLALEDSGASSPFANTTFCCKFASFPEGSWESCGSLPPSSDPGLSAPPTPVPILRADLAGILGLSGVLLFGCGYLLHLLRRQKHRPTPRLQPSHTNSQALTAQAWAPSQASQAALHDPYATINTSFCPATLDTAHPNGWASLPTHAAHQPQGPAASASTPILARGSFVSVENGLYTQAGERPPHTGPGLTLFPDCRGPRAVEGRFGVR

[2] = molecular target: T2, human PVRIG-mFc protein (Acro, PVG-H5253) (human, UniProt Q6DKI7 41-171, limits assumed); assay: competition FACS; blocked: human PVRIG-mFc binding to CHO-K1-CD112 cells
T2 construct: bought reagent; also called PVRIG-ECD-mFc
T2 sequence (looked up): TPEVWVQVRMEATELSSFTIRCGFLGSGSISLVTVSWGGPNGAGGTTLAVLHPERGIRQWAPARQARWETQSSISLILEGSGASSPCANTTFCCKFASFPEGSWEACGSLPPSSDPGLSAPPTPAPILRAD
Method in brief: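 CHO-K1-CD112 cells stained with Zombie violet were added to the mixture for another 30 min at 4° C, and bound PVRIG-mFc was detected with PE goat anti-mouse IgG Fc (1:250) as mean fluorescence intensity on a BD Canto II. IC50 values were read off the resulting competition curve.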

[3] = molecular target: T3, full-length cynomolgus monkey TIGIT on CHO-K1 cells (CHO-K1 cynomolgus monkey TIGIT) (cynomolgus monkey); assay: FACS, CHO-K1 cynomolgus monkey TIGIT cells
T3 construct: NCBI XP_015300911.1; also called cynomolgus monkey TIGIT cells
Method: (§1) The collected cells were washed once with PBS (Hyclone, Cat NO. SH30256), resuspended to 2×10⁵/50 μL with 1% BSA-PBS. The antibodies were diluted to 80 nM with 1% BSA-PBS (diluted by 3-fold serial dilution for 12 concentration points). The 50 μL cells were then mixed with 50 μL diluted antibodies, and then incubated at 4° C. for 60 minutes. […] After washing twice with PBS, the cell samples were resuspended with 1% BSA-PBS, 100 μL/well and then analyzed by flow cytometry (BD, Canto II).

[4] = molecular target: T4, human TIGIT ECD-mFc (fusion protein of extracellular domain of human TIGIT and mouse IgG2a Fc fragment) (human); assay: FACS, competition: hTIGIT ECD-mFc to CHO-K1 CD155
T4 chain: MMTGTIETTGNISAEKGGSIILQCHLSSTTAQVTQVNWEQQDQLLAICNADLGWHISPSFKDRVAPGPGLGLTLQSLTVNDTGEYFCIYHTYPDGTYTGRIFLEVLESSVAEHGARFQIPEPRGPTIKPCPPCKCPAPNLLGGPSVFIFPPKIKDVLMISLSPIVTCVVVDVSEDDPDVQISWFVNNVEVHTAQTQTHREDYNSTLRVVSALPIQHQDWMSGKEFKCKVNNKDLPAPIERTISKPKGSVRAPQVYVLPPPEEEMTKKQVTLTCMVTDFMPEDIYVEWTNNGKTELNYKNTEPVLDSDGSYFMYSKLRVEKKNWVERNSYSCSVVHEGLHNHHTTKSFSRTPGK
Method: The collected CHO-K1 CD155 cells were washed once with PBS (Hyclone, CAT #SH30256) and resuspended to 2×10⁵/40 μL with 1% BSA-PBS. The tested antibodies were diluted to 600 nM with 1% BSA-PBS (diluted by 2.5-fold serial dilution for 12 concentration points). The TIGIT ECD-mFc was diluted with 1% BSA-PBS to 6 μg/mL. The 40 μL cells were then mixed with 40 μL diluted antibodies and 40 μL diluted TIGIT ECD-mFc, and then incubated at 4° C. for 60 minutes. […] The cell samples were washed twice with PBS, resuspended to 100 μL/well with 1% BSA-PBS and then analyzed by flow cytometry (BD, Canto II).

[5] = molecular target: T5, full-length human TIGIT on CHO-K1 cells (CHO-K1 human TIGIT) (human, UniProt Q495A1 22-244); assay: FACS, CHO-K1 human TIGIT low expression strain
T5 construct: NCBI XP_024309156.1; entry includes the signal peptide; also called high expression strain 1D2; medium expression strain 2D10
T5 sequence: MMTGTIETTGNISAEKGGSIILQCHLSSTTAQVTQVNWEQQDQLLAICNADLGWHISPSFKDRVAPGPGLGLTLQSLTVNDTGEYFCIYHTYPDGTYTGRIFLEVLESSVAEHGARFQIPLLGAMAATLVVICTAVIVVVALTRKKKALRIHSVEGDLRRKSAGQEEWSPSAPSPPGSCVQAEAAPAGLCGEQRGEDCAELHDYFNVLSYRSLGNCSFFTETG
Method: as §1

[6] = molecular target: T5, full-length human TIGIT on CHO-K1 cells …; assay: FACS, competition: Bio-CD155-His to CHO-K1 human TIGIT
Method: The collected cells were washed once with PBS (Hyclone, CAT #SH30256), resuspended to 2×10⁵/40 μL with 1% BSA-PBS. The antibodies were diluted to 210 nM with 1% BSA-PBS (diluted by 3-fold serial dilution for 12 concentration points). […] The 40 μL cells were then mixed with 40 μL diluted antibodies and 40 μL diluted Bio-CD155-His, and then incubated at 4° C. for 60 minutes. The cells were washed twice with PBS, resuspended with APC labeled streptavidin (dilution ratio 1:1700, Biolegend, 405243), 100 μL/well, and incubated at 4° C. for 40 minutes. The cell samples were washed twice with PBS, resuspended with 1% BSA-PBS, 100 μL/well and then analyzed by flow cytometry (BD, Canto II). […] [0300] (d) The effect of anti-TIGIT chimeric antibodies blocking the interaction between TIGIT ECD-mFc and CHO-K1 CD155 detected by FACS

T3 sequence (chain, as listed by the source limits assumed): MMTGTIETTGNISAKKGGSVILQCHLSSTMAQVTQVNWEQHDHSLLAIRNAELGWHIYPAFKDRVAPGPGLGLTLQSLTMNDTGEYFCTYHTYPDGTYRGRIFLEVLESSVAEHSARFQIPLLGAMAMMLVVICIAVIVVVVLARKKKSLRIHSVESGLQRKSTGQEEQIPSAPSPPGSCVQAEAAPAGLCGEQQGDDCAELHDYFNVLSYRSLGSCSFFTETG

EC50 (read off the curve) [1]: 1 to 1.4 nM | IC50 (read off the curve) [2]: ~1 nM
B1: SRF813-hIgG1 (antibody, V domains shown)
VH: QVQLVQSGAEVKKPGSSVKVSCKASGGTFSSAAISWVRQAPGQGLEWMGNIIPIVGIANYAQKFQGRVTITADESTSTAYMELSSLRSEDTAVYYCARDTGRGYTRHFWFDPWGQGTLVTVSS
VL: DIQMTQSPSSLSASVGDRVTITCRASQSISSYLNWYQQKPGKAPKLLIYAASSLQSGVPSRFSGSGSGTDFTLTISSLQPEDFATYYCQQSDILYTFGGGTKVEIK
notes: human IgG1 format by its name

EC50 (read off the curve) [3]: ~1 nM | IC50 [4]: 0.566 nM | EC50 (read off the curve) [5]: ~0.4 nM | IC50 [6]: 0.388 nM
B2: RG6058-hIgG1 (antibody, V domains shown)
VH: EVQLQQSGPGLVKPSQTLSLTCAISGDSVSSNSAAWNWIRQSPSRGLEWLGKTYYRFKWYSDYAVSVKGRITINPDTSKNQFSLQLNSVTPEDTAVFYCTRESTTYDLLAGPFDYWGQGTLVTVSS
VL: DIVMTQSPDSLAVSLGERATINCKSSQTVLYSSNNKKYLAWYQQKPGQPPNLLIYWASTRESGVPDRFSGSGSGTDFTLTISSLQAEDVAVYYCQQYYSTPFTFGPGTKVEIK
notes: human IgG1 format by its name; also called Roche RG6058; control antibody RG6058
